Reference: publication PMC4242106 (Science translational medicine, 2010)

Assay type: in vivo, human
Settings: mean of the five repeat experiments; subcutaneous; controller PK setting SLOW

Substance: Insulin lispro
- Inferred lispro PK t95%, Mean: 8.9 h
- Inferred lispro PK tmax, Mean: 1.48 h
